Source: the Human Domainome abundance scans (Beltran et al. 2025)
± gives the uncertainty stated by the source.

Assay: abundance fitness (aPCA) (normalised: wild type 0, dead -1); higher = more abundant; growth selection in yeast, the domain comes from the species named
Details: Homo sapiens

“Scaffold attachment factor B2 K62W, Q14151” and “Scaffold attachment factor B2 T49D, Q14151” are within error of each other in abundance fitness: -0.375 ± 0.12 for the first, -0.472 ± 0.13 for the second.

“Scaffold attachment factor B2 E66T, Q14151” and “Scaffold attachment factor B2 K62S, Q14151” are within error of each other in abundance fitness: -0.301 ± 0.21 for the first, -0.125 ± 0.095 for the second.

First: Scaffold attachment factor B2 E66D, Q14151
Second: Scaffold attachment factor B2 N46V, Q14151
The abundance fitness of the first is higher: -0.042 ± 0.13 for the first, -0.515 ± 0.081 for the second.

“Scaffold attachment factor B2 R29L, Q14151” and “Scaffold attachment factor B2 K53T, Q14151” are within error of each other in abundance fitness: -0.288 ± 0.07 for the first, -0.352 ± 0.11 for the second.

“Scaffold attachment factor B2 L38I, Q14151” and “Scaffold attachment factor B2 S54A, Q14151” are within error of each other in abundance fitness: -0.141 ± 0.13 for the first, -0.037 ± 0.077 for the second.

“Tyrosine-protein kinase Lck I67Q, P06239” and “Scaffold attachment factor B2 K44F, Q14151” are within error of each other in abundance fitness: -0.394 ± 0.14 for the first, -0.61 ± 0.12 for the second.

“Scaffold attachment factor B2 L47H, Q14151” and “Scaffold attachment factor B2 V55F, Q14151” are within error of each other in abundance fitness: -0.789 ± 0.25 for the first, -0.748 ± 0.29 for the second.

Compared with “Scaffold attachment factor B2 V55E, Q14151”, “Scaffold attachment factor B2 V64I, Q14151” is lower in abundance fitness: 0.086 ± 0.097 for the first, -0.271 ± 0.14 for the second.

“Scaffold attachment factor B2 R39G, Q14151” and “Scaffold attachment factor B2 L38F, Q14151” are within error of each other in abundance fitness: -0.606 ± 0.14 for the first, -0.455 ± 0.2 for the second.

“Scaffold attachment factor B2 K44Q, Q14151” and “Scaffold attachment factor B2 L33Y, Q14151” are within error of each other in abundance fitness: -0.1 ± 0.18 for the first, -0.33 ± 0.32 for the second.

“Scaffold attachment factor B2 D48C, Q14151” and “Scaffold attachment factor B2 T49S, Q14151” are within error of each other in abundance fitness: -0.188 ± 0.11 for the first, -0.159 ± 0.087 for the second.

“Scaffold attachment factor B2 T49I, Q14151” and “Scaffold attachment factor B2 K61H, Q14151” are within error of each other in abundance fitness: -0.401 ± 0.2 for the first, -0.128 ± 0.11 for the second.

“Scaffold attachment factor B2 K62D, Q14151” and “Scaffold attachment factor B2 K61Q, Q14151” are within error of each other in abundance fitness: -0.123 ± 0.13 for the first, -0.072 ± 0.096 for the second.

Compared with “Scaffold attachment factor B2 A40W, Q14151”, “Scaffold attachment factor B2 E58I, Q14151” is lower in abundance fitness: -0.135 ± 0.31 for the first, -0.576 ± 0.11 for the second.

Going from “Scaffold attachment factor B2 N52E, Q14151” to “Scaffold attachment factor B2 V55R, Q14151”, the abundance fitness falls from 0.123 ± 0.11 to -0.326 ± 0.075.

Compared with “Scaffold attachment factor B2 L38W, Q14151”, “Tyrosine-protein kinase Lck F110Y, P06239” is higher in abundance fitness: -0.791 ± 0.092 for the first, 0.001 ± 0.19 for the second.

“Scaffold attachment factor B2 L38N, Q14151” and “Scaffold attachment factor B2 M57I, Q14151” are within error of each other in abundance fitness: -0.509 ± 0.17 for the first, -0.319 ± 0.099 for the second.

Going from “Scaffold attachment factor B2 V64Y, Q14151” to “Scaffold attachment factor B2 L38R, Q14151”, the abundance fitness falls from -0.274 ± 0.31 to -0.787 ± 0.076.

“Scaffold attachment factor B2 K65P, Q14151” and “Scaffold attachment factor B2 L30F, Q14151” are within error of each other in abundance fitness: -0.054 ± 0.18 for the first, -0.3 ± 0.12 for the second.

Compared with “Scaffold attachment factor B2 S54G, Q14151”, “Scaffold attachment factor B2 R45W, Q14151” is lower in abundance fitness: -0.101 ± 0.071 for the first, -0.709 ± 0.085 for the second.

“Scaffold attachment factor B2 A63C, Q14151” and “Scaffold attachment factor B2 V55A, Q14151” are within error of each other in abundance fitness: -0.235 ± 0.19 for the first, -0.052 ± 0.095 for the second.

First: Scaffold attachment factor B2 L33M, Q14151
Second: Scaffold attachment factor B2 L56Y, Q14151
The abundance fitness of the first is higher: 0.182 ± 0.11 for the first, -1.01 ± 0.23 for the second.

“Scaffold attachment factor B2 K43D, Q14151” and “Scaffold attachment factor B2 V64Q, Q14151” are within error of each other in abundance fitness: -0.147 ± 0.11 for the first, -0.141 ± 0.16 for the second.

“Scaffold attachment factor B2 K61R, Q14151” and “Scaffold attachment factor B2 R34H, Q14151” are within error of each other in abundance fitness: -0.184 ± 0.095 for the first, -0.205 ± 0.13 for the second.

“Scaffold attachment factor B2 E32C, Q14151” and “Scaffold attachment factor B2 E66H, Q14151” are within error of each other in abundance fitness: -0.33 ± 0.12 for the first, -0.214 ± 0.11 for the second.

“Scaffold attachment factor B2 L30I, Q14151” and “Scaffold attachment factor B2 L42C, Q14151” are within error of each other in abundance fitness: 0.038 ± 0.14 for the first, -0.181 ± 0.11 for the second.

“Scaffold attachment factor B2 L47E, Q14151” and “Scaffold attachment factor B2 K65W, Q14151” are within error of each other in abundance fitness: -0.394 ± 0.098 for the first, -0.269 ± 0.12 for the second.

“Scaffold attachment factor B2 S54C, Q14151” and “Scaffold attachment factor B2 A40L, Q14151” are within error of each other in abundance fitness: -0.44 ± 0.14 for the first, -0.292 ± 0.12 for the second.

Going from “Scaffold attachment factor B2 D37M, Q14151” to “Scaffold attachment factor B2 R29G, Q14151”, the abundance fitness rises from -1 ± 0.21 to -0.127 ± 0.074.

“Scaffold attachment factor B2 T49Y, Q14151” and “Scaffold attachment factor B2 A63F, Q14151” are within error of each other in abundance fitness: -0.512 ± 0.18 for the first, -0.628 ± 0.18 for the second.

“Scaffold attachment factor B2 R34N, Q14151” and “Scaffold attachment factor B2 N46R, Q14151” are within error of each other in abundance fitness: -0.456 ± 0.33 for the first, -0.358 ± 0.073 for the second.

“Scaffold attachment factor B2 A40T, Q14151” and “Scaffold attachment factor B2 T49R, Q14151” are within error of each other in abundance fitness: -0.561 ± 0.17 for the first, -0.766 ± 0.077 for the second.

First: Scaffold attachment factor B2 K53V, Q14151
Second: Scaffold attachment factor B2 V35A, Q14151
The abundance fitness of the first is lower: -0.577 ± 0.083 for the first, -0.2 ± 0.074 for the second.

“Scaffold attachment factor B2 T27A, Q14151” and “Scaffold attachment factor B2 E32T, Q14151” are within error of each other in abundance fitness: -0.164 ± 0.1 for the first, -0.07 ± 0.13 for the second.

“Scaffold attachment factor B2 A63T, Q14151” and “Scaffold attachment factor B2 L30T, Q14151” are within error of each other in abundance fitness: -0.44 ± 0.13 for the first, -0.345 ± 0.14 for the second.

“Scaffold attachment factor B2 G50A, Q14151” and “Scaffold attachment factor B2 V64C, Q14151” are within error of each other in abundance fitness: -0.099 ± 0.089 for the first, -0.312 ± 0.14 for the second.

“Scaffold attachment factor B2 N52I, Q14151” and “Scaffold attachment factor B2 G50N, Q14151” are within error of each other in abundance fitness: -0.237 ± 0.12 for the first, -0.065 ± 0.1 for the second.

“Scaffold attachment factor B2 L47G, Q14151” and “Scaffold attachment factor B2 E58K, Q14151” are within error of each other in abundance fitness: -0.616 ± 0.068 for the first, -0.44 ± 0.17 for the second.

Going from “Scaffold attachment factor B2 E58A, Q14151” to “Scaffold attachment factor B2 R59I, Q14151”, the abundance fitness falls from -0.129 ± 0.085 to -1.2 ± 0.22.

“Scaffold attachment factor B2 R34T, Q14151” showed an abundance fitness of 0.157 ± 0.099.
